From US10858688B2, “Observation method using binding and dissociation probe” (KYOTO UNIVERSITY, priority 2015, dated 2020)

Key:
[1] = test system: intermediate filament; assay: Localization test of probe candidates (integrated SiMS images); assay type: cell-based, Xenopus laevis; parameters: key: “localization” is positive (P) when above criterion (1) is met; conditions: fixed, permeabilized XTC cell; lysate supernatant of EGFP fused probe; TIRF, 10000 frames
Experimental: HEK (Human embryonic kidney)-293F cells were transfected with a plasmid encoding a probe candidate protein tagged with FLAG-EGFP or 3×FLAG-EGFP. […] Centrifugal separation was performed on the lysate and the supernatant liquid was collected. In order to perform screening for a probe for IRIS, the binding capacity of a probe candidate in the supernatant liquid with respect to the structure of an XCT cell that was fixed with paraformaldehyde (PFA) and that received a permeabilization process was tested. The appearance and disappearance of single molecule speckles (Single-molecule speckles, SiMS) in the structure was tested. Screening was performed for a probe for IRIS in accordance with the following criteria:
(1) It is possible to confirm a distribution of target substances in the structure in an image resulting from adding SiMS images;
The localization test of the above (1), whose result is shown in table 1, was performed in the following procedures. First, the supernatant liquid of lysate of a cell that expressed each probe candidate was brought into contact with an XCT cell that was fixed on a coverglass and that received a permeabilization process. […] The obtained speckle images of 10000 frames were integrated so as to confirm whether or not a distribution of target substances in the cell (microtubule, intermediate filament, focal adhesion or actin filament) was able to be confirmed. When a distribution of a target substances was able to be confirmed, the result of the localization test was treated as P (positive).

[2] = test system: intermediate filament; assay: Washability test of probe candidates; assay type: cell-based, Xenopus laevis; parameters: key: “washability” is positive (P) when above criterion (2) is met; conditions: speckles equal to or less than about 10% after switching imaging solution 10 to 20 times
Experimental: (2) It is possible to wash and remove a probe after SiMS imaging (imaging step);
The […] of the above (2), whose result is shown in table 1, was performed in the following procedures. […] This switching of imaging solution was conducted slowly so that the observation position would not shift. Next, an imaging solution not containing a probe and not containing the active oxygen-scavenging mix was switched 10 to 20 times. After the switching, for confirmation, for an XCT cell sample in the observation chamber, speckle images of 10 frames were picked up under a similar condition to that of the localization test described in the previous paragraph, and when the number of speckles confirmed in the speckle images (i.e., the number of probes that had bound) became sufficiently smaller (equal to or less than about 10%) than the number of the speckles in the speckle images before the washing operation, washing was determined to be possible and the result was treated as P (positive).

[3] = test system: intermediate filament; assay: Measurement of binding half-life of probe-target complex; parameters: species or system Xenopus laevis; conditions: fixed XTC cell, single exponential fit
Source text: A probe and a target substance have the following binding characteristics. […] The above half-life herein is preferably a half-life of a probe-target complex formed by binding between a probe and a target substance in a case when a medium containing a probe and a sample containing a target substance that is to be observed are brought into contact under a condition for performing an imaging step. […] Measurement procedures for the half-life are as below. […] Ndissociation is a cumulative relative frequency of a probe that dissociated. A cumulative relative frequency is a ratio of the speckles that disappeared within a given period of time to the total number of measured speckles (i.e. probes) (i.e. probes that dissociated within a given period of time), and represents the total number as 1. Then, by fitting the above complementary cumulative relative frequency function with an exponent function, that half-life is calculated.
The measurement of binding half-life, whose result is shown in table 1, was performed in the following procedures. Speckle images of 10000 frames picked up in the localization test were used in order to measure a period of time between the appearance of a probe that has bound to a target in a speckle image and disappearance through dissociation in a semi-manual mode by using Speckle TrackerJ, an ImageJ plug-in. In case of for example picking up of images with an exposure time of 50 ms and at a frame rate of 20 Hz, it is assumed that a period of time between the appearance and disappearance of a speckle that is observed in only one of consecutive frames is 50 ms and a period of time between the appearance and disappearance of a speckle observed in only two consecutive frames is 100 ms. […] Ndissociation is a cumulative relative frequency of probes that dissociated. Then, by fitting the complementary cumulative relative frequency function with an exponent function, the half-life was calculated. However, the binding half-life with respect to an actin filament of Atto488-Lifeact was measured by using a method that is described in detail in the section for FIG. 9 in the Brief Description of the Drawings.

[4] = test system: intermediate filament; assay: IRIS image test (reconstruction image); assay type: cell-based, Xenopus laevis; parameters: key: “IRIS image” is positive (P) when above criterion (3) is met; conditions: reconstruction from 10000 frames with DAOSTORM
Experimental: […] It is possible to reconstruct an image of a target substance by integrating the central positions of the respective speckles. The IRIS image test of the above (3) whose result is described in table 1 was performed in the following procedures. By using all the speckle images of 10000 frames picked up in the localization test, the central point of a probe that has bound to a target in each frame of the speckle images was determined with nanometer accuracy by using DAOSTORM. By adding a large number of pieces of central point information in the fluorescence images of 10000 frames, a reconstruction image (observation image) was generated. Whether or not a distribution of a target molecule was able to be observed in that reconstruction image was determined, and when a distribution of a target molecule was observed, the result was treated as P (positive).

B1: Plectin-1 3777-4313: EGFP fused (N terminus) human Plectin-1 fragment, residues 3777-4313 of sequence number 8 (protein, UniProt Q15149 3777-4313, looked up, fragment)
chain: YDYVRRRLTAEDLFEARIISLETYNLLREGTRSLREALEAESAWCYLYGTGSVAGVYLPGSRQTLSIYQALKKGLLSAEVARLLLEAQAATGFLLDPVKGERLTVDEAVRKGLVGPELHDRLLSAERAVTGYRDPYTEQTISLFQAMKKELIPTEEALRLLDAQLATGGIVDPRLGFHLPLEVAYQRGYLNKDTHDQLSEPSEVRSYVDPSTDERLSYTQLLRRCRRDDGTGQLLLPLSDARKLTFRGLRKQITMEELVRSQVMDEATALQLREGLTSIEEVTKNLQKFLEGTSCIAGVFVDATKERLSVYQAMKKGIIRPGTAFELLEAQAATGYVIDPIKGLKLTVEEAVRMGIVGPEFKDKLLSAERAVTGYKDPYSGKLISLFQAMKKGLILKDHGIRLLEAQIATGGIIDPEESHRLPVEVAYKRGLFDEEMNEILTDPSDDTKGFFDPNTEENLTYLQLMERCITDPQTGLCLLPLKEKKRERKTSSKSSVRKRRVVIVDPETGKEMSVYEAYRKGLIDHQTYLELSEQEC
modifications: N-terminal EGFP fusion
- LOCALIZATION [1]: P
- WASHABILITY [2]: P
- HALF-LIFE [3]: 0.052 s
- IRIS IMAGE [4]: P

B2: Plectin-1 3777-4364: EGFP fused (N terminus) human Plectin-1 fragment, residues 3777-4364 of sequence number 8 (protein, UniProt Q15149 3777-4364, looked up, fragment)
chain: YDYVRRRLTAEDLFEARIISLETYNLLREGTRSLREALEAESAWCYLYGTGSVAGVYLPGSRQTLSIYQALKKGLLSAEVARLLLEAQAATGFLLDPVKGERLTVDEAVRKGLVGPELHDRLLSAERAVTGYRDPYTEQTISLFQAMKKELIPTEEALRLLDAQLATGGIVDPRLGFHLPLEVAYQRGYLNKDTHDQLSEPSEVRSYVDPSTDERLSYTQLLRRCRRDDGTGQLLLPLSDARKLTFRGLRKQITMEELVRSQVMDEATALQLREGLTSIEEVTKNLQKFLEGTSCIAGVFVDATKERLSVYQAMKKGIIRPGTAFELLEAQAATGYVIDPIKGLKLTVEEAVRMGIVGPEFKDKLLSAERAVTGYKDPYSGKLISLFQAMKKGLILKDHGIRLLEAQIATGGIIDPEESHRLPVEVAYKRGLFDEEMNEILTDPSDDTKGFFDPNTEENLTYLQLMERCITDPQTGLCLLPLKEKKRERKTSSKSSVRKRRVVIVDPETGKEMSVYEAYRKGLIDHQTYLELSEQECEWEEITISSSDGVVKSMIIDRRSGRQYDIDDAIAKNLIDRSALDQYRAGTL
modifications: N-terminal EGFP fusion
- LOCALIZATION [1]: P
- WASHABILITY [2]: P
- HALF-LIFE [3]: 0.059 s
- IRIS IMAGE [4]: P

B3: Plectin-1 4022-4364: EGFP fused (N terminus) human Plectin-1 fragment, residues 4022-4364 of sequence number 8 (protein, listed as Homo sapiens)
chain: FRGLRKQITMEELVRSQVMDEATALQLREGLTSIEEVTKNLQKFLEGTSCIAGVFVDATKERLSVYQAMKKGIIRPGTAFELLEAQAATGYVIDPIKGLKLTVEEAVRMGIVGPEFKDKLLSAERAVTGYKDPYSGKLISLFQAMKKGLILKDHGIRLLEAQIATGGIIDPEESHRLPVEVAYKRGLFDEEMNEILTDPSDDTKGFFDPNTEENLTYLQLMERCITDPQTGLCLLPLKEKKRERKTSSKSSVRKRRVVIVDPETGKEMSVYEAYRKGLIDHQTYLELSEQECEWEEITISSSDGVVKSMIIDRRSGRQYDIDDAIAKNLIDRSALDQYRAGTL
modifications: N-terminal EGFP fusion
- LOCALIZATION [1]: P
- WASHABILITY [2]: P
- HALF-LIFE [3]: 0.103 s
- IRIS IMAGE [4]: P

B4: Plectin-1 3777-4684: EGFP fused (N terminus) human Plectin-1 fragment, residues 3777-4684 of sequence number 8 (protein, listed as Homo sapiens)
chain: YDYVRRRLTAEDLFEARIISLETYNLLREGTRSLREALEAESAWCYLYGTGSVAGVYLPGSRQTLSIYQALKKGLLSAEVARLLLEAQAATGFLLDPVKGERLTVDEAVRKGLVGPELHDRLLSAERAVTGYRDPYTEQTISLFQAMKKELIPTEEALRLLDAQLATGGIVDPRLGFHLPLEVAYQRGYLNKDTHDQLSEPSEVRSYVDPSTDERLSYTQLLRRCRRDDGTGQLLLPLSDARKLTFRGLRKQITMEELVRSQVMDEATALQLREGLTSIEEVTKNLQKFLEGTSCIAGVFVDATKERLSVYQAMKKGIIRPGTAFELLEAQAATGYVIDPIKGLKLTVEEAVRMGIVGPEFKDKLLSAERAVTGYKDPYSGKLISLFQAMKKGLILKDHGIRLLEAQIATGGIIDPEESHRLPVEVAYKRGLFDEEMNEILTDPSDDTKGFFDPNTEENLTYLQLMERCITDPQTGLCLLPLKEKKRERKTSSKSSVRKRRVVIVDPETGKEMSVYEAYRKGLIDHQTYLELSEQECEWEEITISSSDGVVKSMIIDRRSGRQYDIDDAIAKNLIDRSALDQYRAGTLSITEFADMLSGNAGGFRSRSSSVGSSSSYPISPAVSRTQLASWSDPTEETGPVAGILDTETLEKVSITEAMHRNLVDNITGQRLLEAQACTGGIIDPSTGERFPVTDAVNKGLVDKIMVDRINLAQKAFCGFEDPRTKTKMSAAQALKKGWLYYEAGQRFLEVQYLTGGLIEPDTPGRVPLDEALQRGTVDARTAQKLRDVGAYSKYLTCPKTKLKISYKDALDRSMVEEGTGLRLLEAAAQSTKGYYSPYSVSGSGSTAGSRTGSRTGSRAGSRRGSFDATGSGFSMTFSSSSYSSSGYGRRYASGSSASLGGPESAVA
modifications: N-terminal EGFP fusion
- LOCALIZATION [1]: P
- WASHABILITY [2]: P
- HALF-LIFE [3]: 0.457 s
- IRIS IMAGE [4]: P

B5: Plectin-1 4066-4364: EGFP fused (N terminus) human Plectin-1 fragment, residues 4066-4364 of sequence number 8 (protein, listed as Homo sapiens)
chain: LEGTSCIAGVFVDATKERLSVYQAMKKGIIRPGTAFELLEAQAATGYVIDPIKGLKLTVEEAVRMGIVGPEFKDKLLSAERAVTGYKDPYSGKLISLFQAMKKGLILKDHGIRLLEAQIATGGIIDPEESHRLPVEVAYKRGLFDEEMNEILTDPSDDTKGFFDPNTEENLTYLQLMERCITDPQTGLCLLPLKEKKRERKTSSKSSVRKRRVVIVDPETGKEMSVYEAYRKGLIDHQTYLELSEQECEWEEITISSSDGVVKSMIIDRRSGRQYDIDDAIAKNLIDRSALDQYRAGTL
modifications: N-terminal EGFP fusion
- LOCALIZATION [1]: P
- WASHABILITY [2]: P
- HALF-LIFE [3]: 7.7 s
